Assay results taken from patent US20030203372A1, “Analysis method” (priority 2000, published 2003).

Test system: primary human cell cultures (11 cell types)
Experiment: Custom gene array, 11 human cell types in normoxia or hypoxia for 6 hr and 18 hr;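 as to mRNA expression level, #1 HY 18 hr: cell type #1 is adipocyte from subcutaneous adult adipose tissue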;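 as to mRNA expression level, #1 HY 6 hr: cell type #1 is adipocyte from subcutaneous adult adipose tissue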;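 as to mRNA expression level, #1 NO: cell type #1 is adipocyte from subcutaneous adult adipose tissue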;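 as to mRNA expression level, #2 HY 18 hr: cell type #2 is fetal cardiomyocyte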;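 as to mRNA expression level, #2 HY 6 hr: cell type #2 is fetal cardiomyocyte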;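 as to mRNA expression level, #2 NO: cell type #2 is fetal cardiomyocyte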;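 as to mRNA expression level, #3 HY 6 hr: cell type #3 is human umbilical vein endothelial cells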;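 as to mRNA expression level, #3 NO: cell type #3 is human umbilical vein endothelial cells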;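 as to mRNA expression level, #4 HY 18 hr: cell type #4 is adult dermal fibroblast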;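 as to mRNA expression level, #4 HY 6 hr: cell type #4 is adult dermal fibroblast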;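 as to mRNA expression level, #4 NO: cell type #4 is adult dermal fibroblast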;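 as to mRNA expression level, #6 HY 6 hr: cell type #6 is blood-derived macrophage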;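 as to mRNA expression level, #6 NO: cell type #6 is blood-derived macrophage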
Type: cell-based
Conditions: for mRNA expression level, #1 HY 6 hr: cell type #1, hypoxia 6 hr; for mRNA expression level, #1 HY 18 hr: cell type #1, hypoxia 18 hr; for mRNA expression level, #1 NO: cell type #1, normoxia; for mRNA expression level, #2 HY 6 hr: cell type #2, hypoxia 6 hr; for mRNA expression level, #2 HY 18 hr: cell type #2, hypoxia 18 hr; for mRNA expression level, #2 NO: cell type #2, normoxia; for mRNA expression level, #3 HY 6 hr: cell type #3, hypoxia 6 hr; for mRNA expression level, #3 HY 18 hr: cell type #3, hypoxia 18 hr; for mRNA expression level, #3 NO: cell type #3, normoxia; for mRNA expression level, #4 HY 6 hr: cell type #4, hypoxia 6 hr; for mRNA expression level, #4 HY 18 hr: cell type #4, hypoxia 18 hr; for mRNA expression level, #4 NO: cell type #4, normoxia; for mRNA expression level, #5 HY 6 hr: cell type #5, hypoxia 6 hr; for mRNA expression level, #5 NO: cell type #5, normoxia; for mRNA expression level, #6 HY 6 hr: cell type #6, hypoxia 6 hr; for #6 HY 18 hr (mRNA expression level): cell type #6, hypoxia 18 hr; for mRNA expression level, #6 NO: cell type #6, normoxia; for #7 HY 6 hr (mRNA expression level): cell type #7, hypoxia 6 hr; for #7 HY 18 hr (mRNA expression level): cell type #7, hypoxia 18 hr; for #7 NO (mRNA expression level): cell type #7, normoxia; for #8 HY 6 hr (mRNA expression level): cell type #8, hypoxia 6 hr; for #8 HY 18 hr (mRNA expression level): cell type #8, hypoxia 18 hr; for #8 NO (mRNA expression level): cell type #8, normoxia; for #9 HY 6 hr (mRNA expression level): cell type #9, hypoxia 6 hr; for #9 HY 18 hr (mRNA expression level): cell type #9, hypoxia 18 hr; for #9 NO (mRNA expression level): cell type #9, normoxia; for #10 HY 6 hr (mRNA expression level): cell type #10, hypoxia 6 hr; for #10 HY 18 hr (mRNA expression level): cell type #10, hypoxia 18 hr; for #10 NO (mRNA expression level): cell type #10, normoxia; for #11 HY 6 hr (mRNA expression level): cell type #11, hypoxia 6 hr; for #11 HY 18 hr (mRNA expression level): cell type #11, hypoxia 18 hr; for #11 NO (mRNA expression level): cell type #11, normoxia
Description: Equivalent cultures of non-immortalized, non-transformed primary human cells of 10 distinct types, were cultured in either normoxia or were exposed to hypoxia for 6 hr and 18 hr, and gene expression changes were determined. […] Moreover, unlike the vast majority of information in the public domain relating to genes responsive to hypoxia, all of these cells were human and were cultured without any modifications following isolation from the human donors.
A non-primary cell type (#9) was used to represent neurons, since primary human neurons are difficult to source. Therefore a total of 11 cell types are compared. It should be noted that RNA from hepatocytes at the […] timepoint of hypoxia was not available for this work.
Each RNA sample was hybridised to duplicate or triplicate arrays, to ensure reproducible data, and was analysed using GeneSpring software. Data from replicate arrays were merged during analysis to generate mean values. Data normalisation was achieved per-array using the aforementioned list of control genes, such that differences in RNA labelling or hybridization due to experimental variation were corrected by referencing each gene to the mean value of the reference genes on the same array. Also, for each gene, expression values were obtained which represent the value in each experimental condition (e.g. macrophages 6 hr hypoxia) as compared to the median of value of that gene throughout the full range of experimental conditions (i.e. from all cell types). […] This is common in microarray data analysis.

[1] = hypoxia/normoxia induction ratio, 18 hr monocyte
[2] = cell type #1, HY (hypoxia) 6 hr
[3] = cell type #1, HY (hypoxia) 18 hr
[4] = cell type #2, HY (hypoxia) 6 hr
[5] = cell type #2, HY (hypoxia) 18 hr
[6] = cell type #3, HY (hypoxia) 6 hr
[7] = cell type #3, HY (hypoxia) 18 hr
[8] = cell type #4, HY (hypoxia) 6 hr
[9] = cell type #4, HY (hypoxia) 18 hr
[10] = cell type #5, HY (hypoxia) 6 hr
[11] = cell type #6, HY (hypoxia) 6 hr

B1: p1E9 (nucleic acid, listed as Homo Sapiens)
DNA: AGACCCCCCAGGGTGCCTCCGAGAGCTGCCTCACAGAGGACTCCGACCAGGGAGACCTTCCATCCTCCTCCACCTGTTCCACCCAGAGGACGCTGATTCCACCTCCTAAAACCTGCCTACTTCAGGACTTTAAGACTCACAGTCTTCAGCCTGTTAATGATGTCTTCATGTTGAGTTTTATAGCATGACTGTTGACCTTAAGATCCATTCTCATTGCTGATAATGCTGCAGCCCTGCTGGTTTGGGCTTGCTCGAAGATTTTATTAAGGCACGAAGAAGTGAAAAACTAAGGGCTTCATTCACCATCACCAAGTATATCGAACCATATACTTGTTTGCCAAAAGGGTGGAAGGACTTTAATTCGGAAATACTTTACCTCTTAATTTGGCCATATTCAGGAGGCCTAAAAGGATTGATCCNTAATGTTATTTCACCGTGGTTTTTATTGAATGG
modifications: misc_feature 420: n = A,T,C or G
- mRNA expression level, #1 HY 6 hr: 0.89
- mRNA expression level, #1 HY 18 hr: 1.48
- mRNA expression level, #1 NO: 1.54
- mRNA expression level, #2 HY 6 hr: 1.80
- mRNA expression level, #2 HY 18 hr: 1.53
- mRNA expression level, #2 NO: 1.18
- mRNA expression level, #3 HY 6 hr: 0.82
- mRNA expression level, #3 HY 18 hr: 0.60
- mRNA expression level, #3 NO: 0.68
- mRNA expression level, #4 HY 6 hr: 0.64
- mRNA expression level, #4 HY 18 hr: 0.73
- mRNA expression level, #4 NO: 0.60
- mRNA expression level, #5 HY 6 hr: 1.62
- mRNA expression level, #5 NO: 0.92
- mRNA expression level, #6 HY 6 hr: 3.97
- #6 HY 18 hr (mRNA expression level): 6.19
- mRNA expression level, #6 NO: 4.20
- #7 HY 6 hr (mRNA expression level): 0.42
- #7 HY 18 hr (mRNA expression level): 0.18
- #7 NO (mRNA expression level): 0.25
- #8 HY 6 hr (mRNA expression level): 3.63
- #8 HY 18 hr (mRNA expression level): 5.01
- #8 NO (mRNA expression level): 2.33
- #9 HY 6 hr (mRNA expression level): 0.80
- #9 HY 18 hr (mRNA expression level): 0.85
- #9 NO (mRNA expression level): 0.93
- #10 HY 6 hr (mRNA expression level): 0.61
- #10 HY 18 hr (mRNA expression level): 0.61
- #10 NO (mRNA expression level): 0.57
- #11 HY 6 hr (mRNA expression level): 1.37
- #11 HY 18 hr (mRNA expression level): 1.17
- #11 NO (mRNA expression level): 1.58
- HIGHEST FOLD CHANGE IN HYPOXIA (hr hypoxia + cell type) [1]: 2.15 (18 hr monocyte) fold

B2: p1G22 (nucleic acid, listed as Homo Sapiens)
DNA: TTTTTTTTTGTTTCTGTTTTGTTTTTTCTTTTGCACTGATATATACCATACCAACATTGCAAGATGCAAAGTGTGGAAACTGGAGTTTAAATAAAATTACAAGGCAAAACTACCCCATCCCAAGTGCGGTTGCTGTACATATCTACAGTACAATTTTTGGAATGTATTGCCATTTAAGAACATAGAAACTTTCTACAGACAATTTCACATACAGAATACGTACACCTTTTAGAAAAAAAGGCAAATATTTATCTTACAGAGAGCATTGTATTTTACATTTGCCTGCACGTTTCTTTTTTCTGTTTCTTTTCTTTCTTTCTTTTTTTACATACTAGGATTTATTAAAGTGACCATAAGGTGCCCGANGCGGGTTTTCTAATGGGNAAGCAGACTGGGNTTCACCAACACAGGNGCAGGATTGGGTGGGACAGGCTTTCGGGGACCTTTCTTCCCCTGGGNCACACGGGCAGATCCGGTCCCCAAGGGCAGGNTGTTCAGCCNGGGGCTTTTNCTTTT
modifications: misc_feature 366, 384, 397, 412, 459, 491, 501, 511: n = A,T,C or G
- HIGHEST FOLD CHANGE IN HYPOXIA (hr hypoxia + cell type) (DOWN, 18 hr mam epithelial): 2.38 DOWN (18 hr mam epithelial) ^ fold
- mRNA expression level [2]: 0.78
- mRNA expression level [3]: 0.72
- mRNA expression level (cell type #1, NO (normoxia)): 1.14
- mRNA expression level [4]: 2.67
- mRNA expression level [5]: 1.41
- mRNA expression level (cell type #2, NO (normoxia)): 2.75
- mRNA expression level [6]: 12.7
- mRNA expression level [7]: 8.79
- mRNA expression level (cell type #3, NO (normoxia)): 8.35
- mRNA expression level [8]: 1.21
- mRNA expression level [9]: 1.01
- mRNA expression level (cell type #4, NO (normoxia)): 1.35
- mRNA expression level [10]: 0.70
- mRNA expression level (cell type #5, NO (normoxia)): 0.59
- mRNA expression level [11]: 0.63
- mRNA expression level (cell type #6, NO (normoxia)): 0.77

B3: p1F1 (nucleic acid, listed as Homo Sapiens)
DNA: TTTGTGTGGTCTTTTTTTTTTTTTCTCAGTGTTTTCAATTCCTCCTTGGTTGAATCCATGGATGCAAAACCCACAGATATGAAGGGCTGGCTATATATGCATTGATGATTGTCCTATTATATTAGTTATAAAGTGTCATTTAATATGTAGTGAAAGTTATGGTACAGTGGAAAGAGTAGTTGAAAACATAAACATTTGGGCCTTTCAAGAAAGGTAGCTTGGTGAAGTTTTTCACCTTCAAACTATGTCCCAGTCAGGG
- mRNA expression level, #1 HY 6 hr: 0.33
- mRNA expression level, #1 HY 18 hr: 0.52
- mRNA expression level, #1 NO: 0.58
- mRNA expression level, #2 HY 6 hr: 1.19
- mRNA expression level, #2 HY 18 hr: 1.14
- mRNA expression level, #2 NO: 1.42
- mRNA expression level, #3 HY 6 hr: 1.70
- mRNA expression level, #3 HY 18 hr: 1.49
- mRNA expression level, #3 NO: 1.64
- mRNA expression level, #4 HY 6 hr: 0.63
- mRNA expression level, #4 HY 18 hr: 0.54
- mRNA expression level, #4 NO: 0.95
- mRNA expression level, #5 HY 6 hr: 0.50
- mRNA expression level, #5 NO: 0.37
- mRNA expression level, #6 HY 6 hr: 0.61
- #6 HY 18 hr (mRNA expression level): 0.51
- mRNA expression level, #6 NO: 0.62
- #7 HY 6 hr (mRNA expression level): 0.90
- #7 HY 18 hr (mRNA expression level): 0.30
- #7 NO (mRNA expression level): 0.91
- #8 HY 6 hr (mRNA expression level): 0.53
- #8 HY 18 hr (mRNA expression level): 0.66
- #8 NO (mRNA expression level): 0.34
- #9 HY 6 hr (mRNA expression level): 1.23
- #9 HY 18 hr (mRNA expression level): 1.06
- #9 NO (mRNA expression level): 1.66
- #10 HY 6 hr (mRNA expression level): 1.58
- #10 HY 18 hr (mRNA expression level): 1.03
- #10 NO (mRNA expression level): 1.46
- #11 HY 6 hr (mRNA expression level): 1.24
- #11 HY 18 hr (mRNA expression level): 1.06
- #11 NO (mRNA expression level): 1.25
- HIGHEST FOLD CHANGE IN HYPOXIA (hr hypoxia + cell type) [1]: 1.96 (18 hr monocyte) fold

B4: p1G21 (nucleic acid, listed as Homo Sapiens)
DNA: TTTTACATACTAGATTTATTAAAGTGACCATAAGTGCCGAAGCGGTTTTCTAATGGAAAGCAGACTGGATTCACAACACAGAAGCAGAATTGGTGGAACAGGCTTTCGGGAACTTTCTTCCCCTGGTCACACGGCAGATCGGTCCCCAAGGACAGGTGCTCAGCCAGGACTTTTGCTTTAAGAAGGATTTGTCTNGAGAAAGGACTAGAGAGAAATCCAGCTCAGATGTATTGCTCATTCCTCTTCAGAAGGACTGGGTNGGAATGGAGCAGGGGCTAGAGGAATCTGGAAGCTAATTCTTTTAGGCTTTTTCCAACAGAGGGAAGCAGAGGGACTTCTGGGTCTTGAAGTTTGGAGCTTACGGAGGCGA
modifications: misc_feature 195, 260: n = A,T,C or G
- HIGHEST FOLD CHANGE IN HYPOXIA (hr hypoxia + cell type) (DOWN, 6 hr macrophage): 1.85 DOWN (6 hr macrophage) ^ fold
- mRNA expression level [2]: 1.01
- mRNA expression level [3]: 0.55
- mRNA expression level (cell type #1, NO (normoxia)): 0.99
- mRNA expression level [4]: 1.48
- mRNA expression level [5]: 1.10
- mRNA expression level (cell type #2, NO (normoxia)): 2.02
- mRNA expression level [6]: 1.13
- mRNA expression level [7]: 0.80
- mRNA expression level (cell type #3, NO (normoxia)): 1.54
- mRNA expression level [8]: 0.65
- mRNA expression level [9]: 0.60
- mRNA expression level (cell type #4, NO (normoxia)): 0.78
- mRNA expression level [10]: 1.35
- mRNA expression level (cell type #5, NO (normoxia)): 0.72
- mRNA expression level [11]: 0.69
- mRNA expression level (cell type #6, NO (normoxia)): 1.28
